Tests used:
[1] = target: kap3_human PRKAR2B (UniProt P31323)
[2] = target: kap3_human PRKAR2B (UniProt P31323); remark: listed apart in the source

cAMP-dependent protein kinase catalytic subunit alpha (Homo sapiens) (from UniProt P17612) L206R
effect of a mutation on the interaction [1]: decreasing interaction strength | effect of a mutation on the interaction [2]: disrupting interaction strength
